Measured values from patent publication US20110039770A1, “INHIBITORS OF PROTEIN KINASE C ISOFORMS AND USES THEREOF” (PHARMAGAP INC., priority 2005, published 2011).
Where a SMILES comes first, the peptide text is derived from it. [ ]: non-standard residue; d: D form.

Experiments:
Test in all cases: ELISA-based competitive binding assay with purified PKC isoform
PKC-βII = PKC-βII (Homo sapiens, UniProt P05771); parameters: key to Affinity for PKC isoform βII: —: no detectable affinity; Low to very low affinity at 10X or 20X or both PRE concentrations in at least one cell line in the cell extract assay; Low affinity in purified isoform assay.; Moderate affinity at 10X or 20X or both PRE concentrations in at least one cell line in the cell extract assay.; High affinity at 10X or 20X or both PRE concentrations in at least one cell line in the cell extract assay; High affinity in purified isoform assay; settings: for Affinity for PKC isoform βII: Purified isoform
Sequence of PKC-βII (P05771 1-673 isoform P05771-2): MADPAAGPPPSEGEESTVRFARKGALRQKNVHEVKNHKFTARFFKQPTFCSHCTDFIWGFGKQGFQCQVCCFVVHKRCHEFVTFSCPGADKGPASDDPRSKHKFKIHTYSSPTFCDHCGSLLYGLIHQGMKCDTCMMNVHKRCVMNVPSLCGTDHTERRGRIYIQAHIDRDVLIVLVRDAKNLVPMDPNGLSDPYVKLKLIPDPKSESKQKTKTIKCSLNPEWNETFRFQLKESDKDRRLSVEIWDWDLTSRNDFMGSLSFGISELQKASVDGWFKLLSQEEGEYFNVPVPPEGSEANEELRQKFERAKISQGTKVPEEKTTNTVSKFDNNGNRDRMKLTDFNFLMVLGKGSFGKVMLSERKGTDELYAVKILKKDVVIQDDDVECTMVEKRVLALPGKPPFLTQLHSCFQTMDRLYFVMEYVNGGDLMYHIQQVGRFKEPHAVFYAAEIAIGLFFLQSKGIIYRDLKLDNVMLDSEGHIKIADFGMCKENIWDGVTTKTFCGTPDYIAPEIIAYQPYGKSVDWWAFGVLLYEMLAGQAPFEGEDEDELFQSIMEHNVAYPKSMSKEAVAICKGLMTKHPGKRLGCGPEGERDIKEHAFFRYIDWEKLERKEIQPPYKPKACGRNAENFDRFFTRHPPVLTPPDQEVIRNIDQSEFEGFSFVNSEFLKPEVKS
Protocol: (§1) Peptides PRE 1, 2, 3, 4, 5, 6, 7, 8, 9, 10, 11, 12 and 13 (see Table 3) were tested for their ability to interfere with binding of PKC isoform-specific antibodies to their target PKC isoforms using a competitive binding assay and purified PKC isoforms.
(§2) Procedure: Competitive binding was assessed using a 96 well plate ELISA-based assay as described below.
(§3) Greiner 96 well ELISA plates were coated with the appropriate PKC isoform diluted in PBSN (PBS with Calcium/Magnesium+0.05% Sodium azide w/w). 50 μL/well at 250 ng/mL was used. Control wells contained PBSN only. Plates were incubated overnight at 4° C.
(§4) The plates were washed 3 times with 200 μL of dH2O per well, then 100 μL of blocking solution was added per well and the plate incubated for 1 h at 37° C. The washing steps with dH2O were repeated and 50 μL of the appropriate PRE solution (PRE stock solution [20 mM in DMSO] diluted in PBSN) was added and the plate incubated for 1 h at room temperature.
(§5) After incubation, 5 μL of 1.1:400 anti-PKC (isoform specific antibody) was added per well (to provide a final concentration of 1:4000). For PKC-epsilon, 1.1:800 dilution was used and for PKC-zeta a 1.1:100 dilution was used due to high and low binding affinity, respectively. The plates were then incubated 1 h at room temperature, followed by washing with dH2O as described above.
(§6) 50 μL of 1:1000 dilution of Alkaline Phosphatase (AP) conjugated antibody (anti-rabbit for all except zeta, which was anti-goat) was then added and the plate incubated for 1 h at room temperature. Washing with dH2O was then repeated. Finally, 100 μL of pNPP solution in pNPP buffer (2 mM MgCl2, 100 mM Sodium bicarbonate in water, pH 9.8) was added to all wells and incubated for 8 minutes for α, βI, βII ε, and ζ, or for 15-20 mins for δ (until sufficient coloration is observed). The reaction was stopped by addition of Stop solution (2N NaOH) and the absorbance at 405 nm was read on a Galaxy Plate reader.
(§7) Controls were PKC without PRE; blank controls, and controls containing the final concentrations of DMSO used for solubilizing the PREs. The non-specific binding capacity related to DMSO was also measured.
(§8) The antibodies used were as follows: anti-PKC α (Cat. No. SC-208); anti-PKC βI (Cat. No. SC-209); anti-PKC βII (Cat. No. SC-210); anti-PKC δ (Cat. No. SC-213); anti-PKC ε (Cat. No. SC-214); anti-PKC ζ (Cat. No. SC-216-G) (all from Santa Cruz Biotechnology, Inc.). The AP-conjugated antibodies were obtained from Jackson Immuno Research Laboratories (West Grove, Pa.).
(§9) Calculations: The OD values measured at 405 nm represent the free PKC coated per well.
(§10) OD405 PKC alone−Blank OD405 of each sample=OD405 coated isoform
(§11) (OD405 of sample X/OD405 coated isoform)×100=% n that represents the percentage of X binding compared to control.
(§12) 100-% n measures the relative binding capacity of X towards the tested isoform.
(§13) The apparent binding capacity of the DMSO samples was then subtracted from X binding capacity.
(§14) All measurements were made in triplicate and the values in the table represent the averaged calculated binding capacity values after subtraction of the DMSO apparent binding capacity (averaged from 12 values, respectively 10.80, 11.20 and 16.40 corresponding to the concentrations of DMSO used to dilute the […] at 200, 100 and 50 μM respectively). The results allow for quantitative comparison of the binding capacity of each PRE towards an individual isoform within each table, but not among isoforms due to differences in sensitivity of the specific antibodies toward the secondary antibody. This applies particularly to PKC-delta. As noted above, the colour development duration was increased 2-3 times and, as a result, the OD405 measurements may be overestimated for this isoform.

PKC-δ = PKC-δ (Homo sapiens, UniProt Q05655); parameters: key to Affinity for PKC isoform δ: —: no detectable affinity; Low to very low affinity at 10X or 20X or both PRE concentrations in at least one cell line in the cell extract assay; Low affinity in purified isoform assay.; Moderate affinity at 10X or 20X or both PRE concentrations in at least one cell line in the cell extract assay.; High affinity at 10X or 20X or both PRE concentrations in at least one cell line in the cell extract assay; High affinity in purified isoform assay; settings: for Affinity for PKC isoform δ: Purified isoform
Sequence of PKC-δ (Q05655 whole entry, canonical isoform): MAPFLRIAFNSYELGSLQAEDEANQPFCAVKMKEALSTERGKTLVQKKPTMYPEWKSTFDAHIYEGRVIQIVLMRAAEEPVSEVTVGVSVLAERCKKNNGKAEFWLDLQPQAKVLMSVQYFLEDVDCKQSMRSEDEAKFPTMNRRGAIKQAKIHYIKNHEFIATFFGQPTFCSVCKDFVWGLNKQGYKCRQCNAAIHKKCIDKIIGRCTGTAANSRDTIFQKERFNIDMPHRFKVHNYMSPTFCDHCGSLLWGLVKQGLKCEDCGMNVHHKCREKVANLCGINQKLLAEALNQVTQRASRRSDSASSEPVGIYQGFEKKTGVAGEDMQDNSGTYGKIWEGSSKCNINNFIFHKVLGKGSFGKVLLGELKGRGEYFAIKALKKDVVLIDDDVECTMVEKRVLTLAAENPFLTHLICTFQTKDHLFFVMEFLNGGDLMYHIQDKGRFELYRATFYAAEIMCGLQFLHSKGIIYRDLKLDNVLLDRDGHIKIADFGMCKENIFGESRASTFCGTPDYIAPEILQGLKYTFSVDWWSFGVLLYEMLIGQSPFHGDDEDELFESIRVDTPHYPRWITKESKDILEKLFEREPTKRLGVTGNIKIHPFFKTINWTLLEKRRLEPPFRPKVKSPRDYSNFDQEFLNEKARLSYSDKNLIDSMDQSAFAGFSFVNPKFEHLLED
Protocol: as §1, §2, §3, §4, §5, §6, §7, §8, §9, §10, §11, §12, §13, §14

PKC-ζ = biological target: T1, PKC-ζ (Homo sapiens, UniProt Q05513); parameters: key to Affinity for PKC isoform ζ: —: no detectable affinity; Low to very low affinity at 10X or 20X or both PRE concentrations in at least one cell line in the cell extract assay; Low affinity in purified isoform assay.; Moderate affinity at 10X or 20X or both PRE concentrations in at least one cell line in the cell extract assay.; High affinity at 10X or 20X or both PRE concentrations in at least one cell line in the cell extract assay; High affinity in purified isoform assay; settings: for Affinity for PKC isoform ζ: Purified isoform; for inhibition at 100 µM: PRE 100 μM
T1 sequence (Q05513 1-592): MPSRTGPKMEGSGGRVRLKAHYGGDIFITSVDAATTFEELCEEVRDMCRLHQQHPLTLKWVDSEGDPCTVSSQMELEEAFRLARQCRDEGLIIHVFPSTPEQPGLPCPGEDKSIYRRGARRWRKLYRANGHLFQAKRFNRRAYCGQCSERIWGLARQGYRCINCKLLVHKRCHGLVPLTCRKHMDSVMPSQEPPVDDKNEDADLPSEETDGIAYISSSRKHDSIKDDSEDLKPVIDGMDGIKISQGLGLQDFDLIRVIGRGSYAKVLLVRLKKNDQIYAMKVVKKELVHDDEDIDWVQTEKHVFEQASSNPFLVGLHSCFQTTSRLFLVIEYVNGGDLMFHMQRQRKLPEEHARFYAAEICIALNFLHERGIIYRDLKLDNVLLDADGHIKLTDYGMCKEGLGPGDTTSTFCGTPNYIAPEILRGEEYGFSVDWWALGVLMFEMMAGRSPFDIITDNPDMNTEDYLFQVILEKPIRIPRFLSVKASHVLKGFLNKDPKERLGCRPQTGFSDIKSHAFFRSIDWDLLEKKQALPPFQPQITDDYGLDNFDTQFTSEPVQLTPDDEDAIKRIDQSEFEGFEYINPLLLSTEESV
Protocol: as §1, §2, §3, §4, §5, §6, §7, §8, §9, §10, §11, §12, §13, §14

[1] = PRE 50 μM, purified PKC-ζ, read-out: calculated binding capacity (100-% n, DMSO apparent binding subtracted)
[2] = purified PKC-ζ, read-out: calculated binding capacity (100-% n, DMSO apparent binding subtracted)
[3] = PRE 50 μM, purified PKC-βII, read-out: calculated binding capacity (100-% n, DMSO apparent binding subtracted)
[4] = PRE 100 μM, purified PKC-βII, read-out: calculated binding capacity (100-% n, DMSO apparent binding subtracted)

Row | Molecule | Affinity for PKC isoform βII (PKC-βII) | Affinity for PKC isoform δ (PKC-δ) | Affinity for PKC isoform ζ (PKC-ζ) | further results
1 | Ac-ISIGILQNADK-NH2 (not fully specified; printed as Ac-ISIGILQNADK-NH2) [PRE 7] | — | — | — | calculated binding capacity (100-% n, DMSO apparent binding subtracted) (PKC-ζ; PRE 50 μM, purified PKC-ζ): 1.83%; calculated binding capacity (100-% n, DMSO apparent binding subtracted) (PKC-ζ; PRE 200 μM, purified PKC-ζ): 1.54%
2 | RRKKGGKDFVVKR [PRE 1] | — | H | — | calculated binding capacity (100-% n, DMSO apparent binding subtracted) (PKC-ζ; PRE 50 μM, purified PKC-ζ): 4.11%
3 | CC[C@H](C)[C@H](NC(=O)[C@H](CO)NC(=O)[C@@H](NC(=O)CNC(=O)[C@@H](NC(=O)[C@H](CC(C)C)NC(=O)[C@H](CC(N)=O)NC(=O)[C@H](CCC(N)=O)NC(=O)[C@H](C)NC(=O)[C@H](CC(=O)O)NC(=O)[C@H](CCCCN)NC(C)=O)[C@@H](C)CC)[C@@H](C)CC)C(N)=O [PRE 4, Ac-KDAQNLIGISI-NH2] (Ac-KDAQNLIGISI-NH2) | L | H | — | inhibition at 50 µM (PKC-ζ; [1]): 0%; inhibition at 100 µM (PKC-ζ; [2]): 0%
4 | CC[C@H](C)[C@H](NC(=O)[C@H](CO)NC(=O)[C@@H](NC(=O)CNC(=O)[C@@H](NC(=O)[C@H](CC(C)C)NC(=O)[C@H](CC(N)=O)NC(=O)[C@H](CCC(N)=O)NC(=O)[C@H](C)NC(=O)[C@H](CC(=O)O)NC(=O)CNC(=O)CNC(=O)[C@H](CCCCN)NC(=O)[C@@H](NC(=O)[C@H](CCC(=O)O)NC(=O)[C@H](CCC(N)=O)NC(=O)[C@@H](NC(=O)CNC(=O)[C@H](CCCCN)NC(=O)[C@H](C)NC(C)=O)[C@@H](C)CC)C(C)C)[C@@H](C)CC)[C@@H](C)CC)C(N)=O [PRE 3] (Ac-AKGIQEVKGGDAQNLIGISI-NH2) | — | H | H | inhibition at 50 µM (PKC-βII; [3]): 0%; inhibition at 100 µM (PKC-βII; [4]): 0%
5 | CC[C@H](C)[C@H](NC(=O)[C@H](CO)NC(=O)[C@@H](NC(=O)CNC(=O)[C@@H](NC(=O)[C@H](CC(C)C)NC(=O)[C@H](CC(N)=O)NC(=O)[C@H](CCC(N)=O)NC(=O)[C@H](C)NC(=O)[C@H](CC(=O)O)NC(=O)[C@H](CCCCN)NC(=O)CNC(=O)CNC(=O)[C@H](CCCCN)NC(=O)[C@@H](NC(=O)[C@H](CCC(=O)O)NC(=O)[C@H](CCC(N)=O)NC(=O)[C@@H](NC(=O)CNC(=O)[C@H](CCCCN)NC(=O)[C@H](C)NC(C)=O)[C@@H](C)CC)C(C)C)[C@@H](C)CC)[C@@H](C)CC)C(N)=O [PRE 5] (Ac-AKGIQEVKGGKDAQNLIGISI-NH2) | — | L | — | inhibition at 50 µM (PKC-βII; [3]): 0%; inhibition at 100 µM (PKC-βII; [4]): 0%; inhibition at 200 µM (PKC-βII; PRE 200 μM, purified PKC-βII, read-out: calculated binding capacity (100-% n, DMSO apparent binding subtracted)): 0%; inhibition at 50 µM (PKC-δ; PRE 50 μM, purified PKC-δ (may be overestimated), read-out: calculated binding capacity (100-% n, DMSO apparent binding subtracted)): 0.2%; inhibition at 100 µM (PKC-δ; PRE 100 μM, purified PKC-δ (may be overestimated), read-out: calculated binding capacity (100-% n, DMSO apparent binding subtracted)): 0%; inhibition at 50 µM (PKC-ζ; [1]): 0%; inhibition at 100 µM (PKC-ζ; [2]): 0%; inhibition at 200 µM (PKC-ζ; PRE 200 μM, purified PKC-ζ, read-out: calculated binding capacity (100-% n, DMSO apparent binding subtracted)): 0%
6 | ILEDKGGDAQNLIGISI [PRE 8] | — | — | — | 
7 | Ac-KDANQLIGISI-NH2 [PRE 6] | — | L | — | 

Continued, in another order:

Row | Affinity for PKC isoform βII (PKC-βII) | Affinity for PKC isoform δ (PKC-δ) | Affinity for PKC isoform ζ (PKC-ζ) | Molecule | further results
8 | — | L | — | Ac-RDAQNLI-NH2 [PRE 13] | calculated binding capacity (100-% n, DMSO apparent binding subtracted) (PKC-ζ; PRE 200 μM, purified PKC-ζ): 4.29%
9 | L | — | — | Ac-ISIGILNQADK-NH2 [PRE 10] | 
10 | H | L | — | Ac-isigilqnadk-NH2 (Ac-[dI][dS][dI]G[dI][dL][dQ][dN][dA][dD][dK]-NH2; SMILES CC[C@@H](C)[C@@H](NC(C)=O)C(=O)N[C@H](CO)C(=O)N[C@@H](C(=O)NCC(=O)N[C@@H](C(=O)N[C@H](CC(C)C)C(=O)N[C@H](CCC(N)=O)C(=O)N[C@H](CC(N)=O)C(=O)N[C@H](C)C(=O)N[C@H](CC(=O)O)C(=O)N[C@H](CCCCN)C(N)=O)[C@H](C)CC)[C@H](C)CC) [PRE 9] | calculated binding capacity (100-% n, DMSO apparent binding subtracted) (PKC-βII; PRE 50 μM, purified PKC-βII): 8.14%; calculated binding capacity (100-% n, DMSO apparent binding subtracted) (PKC-βII; PRE 100 μM, purified PKC-βII): 0.3%; calculated binding capacity (100-% n, DMSO apparent binding subtracted) (PKC-δ; PRE 50 μM, purified PKC-δ (may be overestimated)): 16.23%; calculated binding capacity (100-% n, DMSO apparent binding subtracted) (PKC-δ; PRE 100 μM, purified PKC-δ (may be overestimated)): 19.27%; calculated binding capacity (100-% n, DMSO apparent binding subtracted) (PKC-δ; PRE 200 μM, purified PKC-δ (may be overestimated)): 9.95%
11 | — | H | — | Ac-RDAQNLIGISI-NH2 [PRE 11] | 
